Laboratory results published in paper PMC6307784.

Target: T1, NhaR-His6 (Escherichia coli) (UniProt P0A9G2)
T1 sequence: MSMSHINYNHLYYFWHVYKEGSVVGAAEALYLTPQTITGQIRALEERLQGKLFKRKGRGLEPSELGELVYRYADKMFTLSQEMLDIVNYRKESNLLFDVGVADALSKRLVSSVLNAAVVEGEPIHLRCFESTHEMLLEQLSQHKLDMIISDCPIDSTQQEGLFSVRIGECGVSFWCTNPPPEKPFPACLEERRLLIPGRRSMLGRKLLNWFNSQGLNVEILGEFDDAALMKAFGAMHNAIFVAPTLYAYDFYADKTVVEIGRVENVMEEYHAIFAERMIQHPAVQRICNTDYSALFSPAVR
Experiment: EMSA
Details: LightShift Chemiluminescent EMSA Kit (Pierce) as per manufacturer, DNA 1 fM as printed, 5% PAGE; buffer, salt, pH and temperature not stated

With “TCGACGAAGATAGAATCGTCTTTTTCGCGAAGTCTTACAAGGCGCTTACAGACAATGCCTTAAGGAAAATTTCATATGAAAGTTAAGAATTAACAATCAACATTTTGATTTTAAATGAAAATAACGATTCTTATCTTTTTAAGTATTCGCTTATTTCCTGGCGATCTCCTACAGAGTCTGTAAGAGATCTCTCACAACCAGATGGGGTATTTGGATTA (double strand) [csrB promoter 220 bp]” the binding was “no binding”.
